Experimental data from patent US20220380473A1, “ANTI-GAL3 ANTIBODIES AND USES THEREOF” (TrueBinding, Inc., priority 2019, published 2022).
Entries after “also recorded” stand apart in the source; their conditions may differ.

B1: 12G5.D7: murine anti-Gal3 antibody (antibody, V domains shown)
VH: QVQLKQSGAELVRPGASVKLSCKASGYTFTDYYINWVKQRPGQGLEWIARIYPGTGNTDYNEKFKGRATLTAEKSSSTAYMQLSSLTSEDSAVYFCARFAYYYGSGGYFDYWGHGTTLTVSS
VL: DILMTQSPSSMSVSLGDTVSITCHASQGINSNMGWLQQKPGKSFKGLIYHATNLEDGVPSRFSGSGSGADYSLTISSLESEDFADYYCVQYAQFPPTFGSGTKLEIK
modifications: VH of 12G5.D7; VL of 12G5.D7
notes: murine anti-Gal3 antibody
B2: 20D11.2C6: murine anti-Gal3 antibody (antibody, V domains shown)
VH: EVQLQQSGPELVKPGASVKISCKASGYTFTDFYINWVKQSHGKSLEWIGDINPKNGGINYNPKFKIKATLTVDKSSSTSYMDLRGLTSEDSAVYYCTSGYGFPYWGQGTLVTVSA
VL: DIQMNQSPSSLSASLGDTITITCRASQNIYIWLSWYQQKPGNIPKLLIYKASNLHTGVPSRFSGSGSGTDFTLTISTLQPEDIATYFCLQGQSYPLTFGAGTKLEMK
B3: 24D12.2H9: murine anti-Gal3 antibody (antibody, V domains shown)
VH: QVQLKQSGPGLVQPSQSLSITCTVSGFSLTSYGVHWVRQAPGKGLEWLGVIWSGGSTDYNAAFMSRLSISKDNSKSQVFFKMNSLQADDTAIYYCAKSPDGYDVAWFGYWGQGTLVTVSA
VL: DIVMTQSHKFMSTSVGDRVSITCKASQDVRTAVAWYQQKPGQSPKLLIYWASTRHTGVPDRFTGSGSGTDFTLTLSNVQSEDLADYFCQQYSSYPWTFGGGTKLEIK
modifications: VH of 24D12.2H9; VL of 24D12.2H9
notes: murine anti-Gal3 antibody
B4: 19B5.2E6: murine anti-Gal3 antibody (antibody, V domains shown)
VH: QIQLVQSGPELKKPGETVKISCKASGYTFTTYAMSWVKQAPGKGLKWMGWINTYSGVPTYADDLKGRFAFSLETSASTAYLQINNLKNEDTATYFCARGPYAMDYWGQGTSVTVSS
VL: DIQMTQTTSSLSASLGDRVTISCSASQGINNYLNWYQQKPDGTVKLLIYYASSLHSGVPSRFSGSGSGTDYSLTISNLEPEDIATYYCQQYSQVPYTFGSGTKLEIK
B5: 23H9.2E4: murine anti-Gal3 antibody (antibody, V domains shown)
VH: QIQLVQSGPELKKPGETVKISCKASGYTFTTYAMSWVKQAPGKGLKWMGWINTYSGVPTYADDLKGRFAFSLETSASTAYLQINNLKNEDTATYFCARGPYAMDYWGQGTSVTVSS
VL: DIQMTQTTSSLSASLGDRVTISCSASQGINNYLNWYQQKPDGTVKLLIYYASSLHSGVPSRFSGSGSGTDYSLTISNLEPEDIATYYCQQYSQVPYTFGSGTKLEIK
B6: 15F10.2D6: murine anti-Gal3 antibody (antibody, V domains shown)
VH: EVQLVESGGGLVKPGGSLKLSCAASGFAFSSYAMSWVRQTPEKRLEWVATISDGGVYTYYTDHVKGRFTISRDNAEDNLYLQMSHLKSEDTAMYYCVRDGGYWGQGTTLTVSS
VL: DVLMTQTPLSLPVSLGDQASISCRSSQSIVHNNGNTYLEWYLQKPGQSPKLLIYKVSNRFSGVPDRFSGSGSGTDFTLKISRVEAEDLGVYYCFQGSHVPLTFGGGTKLELK
B7: 846.1F5: murine anti-Gal3 antibody (antibody, V domains shown)
VH: QIQLVQSGPELKKPGETVKISCKASGYTFTNYGMNWVKQAPGKGLKWMGWINTYTGEPSYADDFKGRFAFSLETSASTAYLQINNLKNEDMATYFCARWGGYDGDYYAMDYWGQGTSVTVSS
VL: NIMMTQSPSSLAVSAGEKVTMSCKSSQSVLYSSNQKNYLAWYQQKPGQSPKLLIYWASTRESGVPDRFTGSGSGTDFTLTISSVQPEDLAVYYCHQYLSSLTFGAGTKLELK

Columns and labels:
Galectin-3 = Galectin-3 (Homo sapiens, UniProt P17931); experiment: SPR (BiacoreT200) binding affinity; conditions: 25° C., read-out: hGal-3 KD
Description: GAL3-binding antibodies were evaluated for their binding affinity by SPR. Kinetics experiments were performed on BiacoreT200 at 25° C. in high performance mode. Ligand proteins, purified antibodies were captured onto a CM5 chip coupled with anti-human Fc or anti-mouse Fc antibody, three antibodies at a time onto flow cell #2, 3, and 4, respectively, while flow cell #1 was used as reference. The analyte Galectin-3 in HBS-EP buffer was injected over all four flow cells at concentrations of 100, 50, 25, 12.5, 6.25, 3.125 and 0 nM at a flow rate of 30 μL/min. The complex was allowed to associate and dissociate for 240 and 300 seconds, respectively. The surfaces were regenerated with a 30 second injection of 10 mM Glycine pH 1.7 (flow rate 30 μL/min). The data were fit to a simple 1:1 interaction model using the global data analysis option available within BiacoreT200 Evaluation software V2.0. The affinity of Gal3 monoclonal antibodies was confirmed to be […] 30 nM for all antibodies studied (Table 24.1). Antibodies with affinity less than 2E-7 were selected for further characterization.

human Gal3-His = human Gal3-His (Homo sapiens, UniProt P17931); experiment: Antibody binning by biolayer interferometry (Gator); format: binding; conditions: antibody competition
Description: To determine whether Gal3-binding antibodies with Gal3-TIM3 blocking activity bind to the same or overlapping regions of the Gal3 molecule, antibody binning assays were performed to assess the ability of antibodies to simultaneously bind Gal3. Amine-reactive probes were loaded onto a Gator biosensor (Probe Life, Palo Alto, Calif.), equilibrated in dH20 for 60 seconds, dipped into 100 μl EDC 0.2M/NHS 0.05M activation buffer for 30 seconds, then dipped into a solution of […] human Gal3-His in 10 mM NaOAc buffer, pH 5 until binding was saturated, and quenched in 1 M ethanolamine pH 8.5 for 300 seconds. Following Gal3-His loading, tips were dipped in 20 μg/mL saturating antibody, then successively dipped into 5 μg/mL competing antibody.

[1] = target: T1, association of GAL3 and TIM3 (Homo sapiens, UniProt P17931); experiment: GAL3-TIM3 blocking ELISA (Examples 24, 27); format: binding; conditions: 3 ug/mL antibody
T1 construct: full-length human Galectin-3 protein (Acro Biosystems, GA3-H5129); linker-spaced 6-histidine tag; purchased Acro Biosystems GA3-H5129 (Gal3); TM3-H5229 (TIM-3)
Description: Positively scoring wells were evaluated for the ability to block association of GAL3 and TIM3. To identify GAL3-targeted antibodies with the ability to block the interaction of GAL3 and TIM3, purified GAL3 and TIM3 proteins were incubated in the presence of GAL3-immunization hybridoma supernatants described above, or without antibody, and protein interaction was evaluated by ELISA. Human Galectin-3 protein (Acro Biosystems, GA3-H5129) was diluted in PBS (Corning, 21-030-CM) to a concentration of 3 μg/ml and added to the wells of a 96-well ELISA plate (Thermo Fisher, 44-2404-21). After incubating the plate at 4° C. overnight, the plate was washed three times with PBST (PBS with 0.05% Tween 20 [VWR, 0777]). The plate was then blocked for an hour with 2% BSA (EMD Millipore, 126609) in PBST at room temperature with gentle rocking. Thereafter, the 2% BSA in PBST was discarded and antibody or inhibitor (3-fold dilutions beginning at 20 μg/ml, 60 μg/ml, or 180 μM) in 2% BSA in PBST was added to the wells. Afterwards, 2 μg/ml of human TIM3 (Aero Biosystems, TM3-H5229) in 2% BSA in PBST was added to the antibody or inhibitor in the wells in a 1:1 ratio. The plate was incubated for an hour at room temperature with gentle rocking. Thereafter, the plate was washed three times with PBST, and 0.3 μg/ml of human TIM3 Biotinylated Antibody (R&D Systems, BAF2365) in 2% BSA in PBST was added to the wells. The plate was incubated for an hour with gentle rocking and then washed three times with PBST. Avidin-HRP (1:2000) was then added to the wells. The plate was incubated at room temperature for an hour with gentle rocking and then washed three times with PBST. TMB substrate (Thermo Scientific, 34029) was then added to each well. The reaction was stopped with 1M HCl (JT Baker, 5620-02) and read using a plate reader (Molecular Devices) at absorbance of 450 nm.

hGal3 peptide = experiment: Gal3 peptide library ELISA (Example 25); format: binding, human; conditions: for Epitope Mapping: hGal3 peptide No. bound; for Gal3 peptide bound: peptide array ELISA
Description: To identify the epitopes to which Gal3 antibodies with and without Gal3-TIM3 blocking activity bound, a library of 20 amino acid peptides representing portions of Gal3, summarized in Table 24.1, was produced and the ability to bind Gal3 antibodies was evaluated by ELISA.
At least 2 μg/ml of hGal3 peptide in 50 μl of PBS or 0.1 μg/ml of full-length human Gal3 protein (GenScript) and human Galectin-3 protein (Acro Biosystems, GA3-H5129) were diluted in PBS (Corning, 21-030-CM) to concentrations of at least 2 μg/ml or 0.1 μg/ml, respectively, and added to the wells of a 96-well ELISA plate (Thermo Fisher, 44-2404-21). After incubating the plate at 4° C. overnight, the plate was washed three times with PBST (PBS with 0.05% Tween 20 [VWR, 0777]). The plate was then blocked for an hour with 2% BSA (EMD Millipore, 126609) in PBST at room temperature with gentle rocking. Thereafter, the 2% BSA in PBST was discarded and human Galectin-3 hybridoma supernatants or antibodies were diluted in 2% BSA in PBST to concentrations of at least 0.1 μg/ml and added to the wells. The plate was incubated for an hour at room temperature with gentle rocking and then washed three times with PBST. Afterwards, Goat Anti-Mouse IgG-HRP (Jackson ImmunoResearch, 115-036-1461) or Goat Anti-Rat IgG HRP (abcam, ab205720) diluted in 2% BSA in PBST (1:4000) were added to the wells. The plate was incubated for 30 minutes to 1 hour at room temperature with gentle rocking and then washed three times with PB ST. TMB substrate (Thermo Scientific, 34029) was then added to each well. The reaction was stopped with 1M HCl (JT Baker, 5620-02) and read using a plate reader (Molecular Devices) at absorbance of 450 nm.

T1 sequence (P17931 2-250 limits assumed): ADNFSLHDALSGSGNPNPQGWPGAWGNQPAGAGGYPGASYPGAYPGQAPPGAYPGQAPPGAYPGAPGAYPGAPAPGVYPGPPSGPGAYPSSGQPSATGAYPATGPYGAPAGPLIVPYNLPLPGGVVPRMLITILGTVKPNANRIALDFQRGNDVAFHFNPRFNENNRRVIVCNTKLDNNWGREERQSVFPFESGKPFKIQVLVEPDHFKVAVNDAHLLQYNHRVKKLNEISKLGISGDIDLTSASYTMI
Chain of Galectin-3 (P17931 whole entry): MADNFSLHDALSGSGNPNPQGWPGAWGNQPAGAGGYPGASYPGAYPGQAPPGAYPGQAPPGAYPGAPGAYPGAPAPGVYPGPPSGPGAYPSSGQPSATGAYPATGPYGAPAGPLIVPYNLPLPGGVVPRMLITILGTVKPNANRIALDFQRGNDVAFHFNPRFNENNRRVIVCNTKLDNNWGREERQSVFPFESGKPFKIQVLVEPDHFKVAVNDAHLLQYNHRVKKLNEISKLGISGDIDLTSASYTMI
Chain of human Gal3-His (P17931 whole entry): as above

Molecule	Kd (Galectin-3)	Bin (human Gal3-His)	GAL3-TIM3 Blocking @ 3 ug/mL [1]	Epitope Mapping (hGal3 peptide)	Gal3 peptide bound (hGal3 peptide)
B1	1.9 nM	10	12%	Non-linear	–
B2	27.8 nM	5	40%	–	peptide 1; also recorded: peptide 7
B3	4.13 nM	11	0%	Non-linear	–
B4	< 1 nM	4	61%	1,7	peptide 1; also recorded: peptide 7
B5	4.26 nM	4	80%	1,7	peptide 1; also recorded: peptide 7
B6	2.06 nM	8	19%	2,7	peptide 7
B7	2.73 nM	3	90%	6	peptide 6
